From article PMC3943285, “Activity of a Carboxyl-Terminal Truncated Form of Catechol 2,3-Dioxygenase from Planococcus sp. S5” (The Scientific World Journal, 2014) come the findings set out here.

For the data set, the system named is Oc1ccccc1O. The data set can be described thus: cells, lysate or membranes. Conditions: catechol 0-150 µM, 35 °C, 50 mM phosphate pH 7.5 (general assay), O2 co-substrate, crude extract.
[1] abbreviates: C-terminally truncated (stop at 289).

On to “C23Owt (catechol 2,3-dioxygenase from Planococcus sp. S5) (Planococcus sp. S5)”, for which the Km is 97.74 ± 10.91 µM and the Vmax is 0.115 µmol/min/mg.
With “C23Owt (catechol 2,3-dioxygenase from Planococcus sp. S5) (Planococcus sp. S5; C103R)”, under setting [1], the Km stood at 66.17 ± 9.44 µM and the maximum rate (Vmax) amounted to 0.104 µmol/min/mg.

As a reminder, the Km is the concentration of substrate that gives half-maximal velocity. One may read the Vmax as the top rate of the reaction or transport when substrate is in excess.
